From PMC9026278

Experiments:
Test in all cases: SPR
[1] = target: CH2-4.10 N299A aglycosylated anti-mesothelin human IgG1 antibody (human)
[2] = target: CH2-4.15 N297A aglycosylated anti-mesothelin human IgG1 antibody (human)
[3] = target: CH2-4.16 N298A aglycosylated anti-mesothelin human IgG1 antibody (human)
[4] = target: CH2-4.16 N298A-tubulysin (MSLN, huG1)
[5] = target: CH2-4.19 N301A aglycosylated anti-mesothelin human IgG1 antibody (human)
[6] = target: CH2-4.20 N300A aglycosylated anti-mesothelin human IgG1 antibody (human)
[7] = target: N297A aglycosylated anti-mesothelin human IgG1 antibody (human)

hCD64 (from UniProt P12314 16-374) (receptor)
100 fold: fold weaker binding than the corresponding glycosylated species [1] | fold weaker binding than the corresponding glycosylated species [2] | fold weaker binding than the corresponding glycosylated species [3] | fold weaker binding than the corresponding glycosylated species [5] | fold weaker binding than the corresponding glycosylated species [6] | fold weaker binding than the corresponding glycosylated species [7]
172 nM: Kd [4]
